# Experimental data: the DeepSol protein solubility set
# Test: soluble on expression in E. coli; label from the status in PepcDB or PDB records
row,Sequence,soluble on expression in E. coli
1,MGSDKIHHHHHHMLQQVPTRAFHVIAKPSGSDCNLNCDYCFYLEKQSLYREKPVTHMDDDTLEAYIRHYIAASELQNEVAFTWQGGEPTLLGLEFYRRAVALQAKYGAGRKISNSFQTNGVLLDDEWCAFLAENNFLVGLSLDGPAEIHNQYRVTKGGRPTHKLVMRALTLLQKHHVDYNVLVCVNRTSAQQPLQVYDFLCDAGVEFIQFIPVVERLADETAVRDGLKLHAPGDIQGELTEWSVRPDEFGEFLVAIFDHWIKRDVGKIFVMNIEWAFANFVGAPGAVCHHQPTCGRSVIVEHNGDVYACDHYVYPQYRLGNMHQQTIAEMIDSPQQQVFGEDKFKQLPAQCRSCNVLKACWGGCPKHRFMLDASGKPGLNYLCAGYQRYFRHLPPYLKAMADLLAHGRPASDIMQAHLMVVNK,not soluble
2,MGSDKIHHHHHHMRIAQVAPLWERVPPPAYGGIELVVGLLTDELVRRGHEVTLFASGDSISLAKLVSVHPRALRLDRTIKDYSVYETLNLASAYERAEEFDIIHSHIGHGALAYANLVTTPTVHTLHGIFTSDNEKMFSFGKKQPYVSISDAQREPRLGLNCIATVYNGIDVSSYNFHAQPEDPPYLAFLGRMSPEKGAHLAIEIAKQAGWCLKMAGKVDVVDVEYFEKEIKPHIDGEQIQYLGEANHAQKNALMGGAFATLFPITWREPFGLVMVESMASGTPVIAMNLGSTEEVISHGKTGFLCNNLQECISAVDRVIELDRYTCRQYVEDLFSVEQMTDGYEAVYQKIIAERFSRNGHSRNLIALSSDRI,not soluble
3,MSLVEKPVVIKFGGTSVRYAFEEALELVAKLHENMKIIVVVSALAGVTDCLLRLAKGDKSALLEIDEIHEELSQELNVQLEHLIHQLKKTINSKSSFPSEKAFIDEIASFGERFSAKLFSEGLKILGITARPVDSKDVLFVKGEFGNAEVEFKKSAQGVDVLYRMLRRGIVPVVTGYYGNLNGFRATFGRGGSDYSATSIASLVNAKAVLIMSDVEGIYTADPKLVPPARLIHYISYKEAKTAAKLGMKVLHPRAIDPVEGKIPVILGKTRDLKFGTLISHESQGIPIVTHKLLENHAEISVVSVKTNIPLPYEVYEEGDLYFKIKTSKDQFLEVLRDVHRRVVENENLHSSHDGELWTWVEGHHHHHH,soluble
4,MGSKRRFSSEHPDPVETSIPEQAAEIAEELSKQHPLPSEEPLVHHDAGEFKGLQRHHTSAEEAQKLEDGKINPFTGREFTPKYVDILKIRRELPVHAQRDEFLKLYQNNQIMVFVGETGSGKTTQIPQFVLFDEMPHLENTQVACTQPRRVAAMSVAQRVAEEMDVKLGEEVGYSIRFENKTSNKTILKYMTDGMLLREAMEDHDLSRYSCIILDEAHERTLATDILMGLLKQVVKRRPDLKIIIMSATLDAEKFQRYFNDAPLLAVPGRTYPVELYYTPEFQRDYLDSAIRTVLQIHATEEAGDILLFLTGEDEIEDAVRKISLEGDQLVREEGCGPLSVYPLYGSLPPHQQQRIFEPAPESHNGRPGRKVVISTNIAETSLTIDGIVYVVDPGFSKQKVYNPRIRVESLLVSPISKASAQQRAGRAGRTRPGKCFRLYTEEAFQKELIEQSYPEILRSNLSSTVLELKKLGIDDLVHFDFMDPPAPETMMRALEELNYLACLDDEGNLTPLGRLASQFPLDPMLAVMLIGSFEFQCSQEILTIVAMLSVPNVFIRPTKDKKRADDAKNIFAHPDGDHITLLNVYHAFKSDEAYEYGIHKWCRDHYLNYRSLSAADNIRSQLERLMNRYNLELNTTDYESPKYFDNIRKALASGFFMQVAKKRSGAKGYITVKDNQDVLIHPSTVLGHDAEWVIYNEFVLTSKNYIRTVTSVRPEWLIEIAPAYYDLSNFQKGDVKLSLERIKEKVDRLNELKQGKNKKKSKHSKKHHHHHH,soluble
5,MAHHHHHHMELYQDNKINNVGNIEINQCDGVIKKENDLHVSVIKPITKKIIHCDNMENKMKINAFYKPVELVEEIKNYVHKGDTHLVKLYEDFKNKKDKKVKMKNEYMTKLKNLHILNMINNKKKENECGVVNKNNIVHFNLFNENEDVTPKIETVYIPKLEKNIEVVSHLKENVNVDYTYMVPKPVVIPIEVPILKFRDHFKIIPIRKKIIPVIKYTDNIIYVDCCVEKPYIVYENVIIPVPCDIPIEQKKYIDKVPPI,not soluble
6,MMETQNVKDTVRQIFTEYLTANGHRKTPERYAILETIYSIDGHFDIDMLYSRMMDQENFRVSRATLYNTIILLINARLIIKHQFGTSSQYEKSYNRETHHHQICTQCGKVTEFQNEELQHAIENTKLSRFQLSHYSLYIYGLCSKCDRANKRKKVSNNNKKEK,not soluble
7,MGSDKIHHHHHHMIVDNDLISIQEARILAENAGRAQRVLATFSQEQLDEIVEAVAEAVGAQAQALADMAYEETDYGNPHDKAVKNRFVCTQVREQLRGMRCVGVIGRDEHARTMDIGVPVGVIAALCPATSPVSTTICKTLIAVKSGNAVVFSPHPRAARSIAAALDIMIDAARAHGLPEGCLSYMSTVTKSGTAELMNHPATSLVMLSGVPGMIGLARCSGKPVIYGGTGNGPAFVERSADIRRAVADIMLSKTFDNGIAPSAEQSIVVDSCIEREVRHALQECGAYFMTDEESLRLAELLFCADGRHKAGMVGVSAPVLARRAGISVPDNVRLLVAERKYVSEADPYSRELLSPVLAYYVEDDWMHACEKCIELLLHERNAHTLVIHSSNEEVILQFALKKPVGRLLVNTPATFGGMGVTTNLFPSMTLGSGSAGRGITADNVSPMNLIYIRKVGYGVRQYTGAQDAAGYGSRVCAAQGVMAPHDSDSRKMQALHRILMEAIGVMDGAAHR,not soluble
8,MSLSIASADRWSDPMPTTATTFEEFRQRVDYSLLQALKPDPEATSDGNDHRPRPVFSGHWVPVRPTPIPEPKYVAHSFILFAELGISDDLAHNSDFTRLFSGDASVAAEPMHSWGWATGYALSIYGTEYIQQCPFGTGNGYGDGRAMSIVEGVFEGQRWEMQLKGGGPTPYCRGADGRAVLRSSVREFLAQEFMHALGVPTSRSLTLYRSEAETVRRPWYSDHSRSFDPDVMVDNQAAISTRVAPSFLRVGQIELFARRARDNAHPNAHDELRLIVQHLIDRNYRAEIDATLPFHQQVLELARLFRGRLTALVANWMRVGYCQGNFNSDNCAAGGYTLDYGPFGFCELFDPRFQPWTGGGAHFSFFNQPAAAEANYRMFWRSLRTLLEGDDAAQRELDQLNEGFAVAMQQQLEAMWASKLALPAYDETLVTELLQLLVAAKADYTKAFRLLSTIPDHVAELHPSFYLPSSEDLDQRWQTWLQRWRERITANGDLEETSAAMRRVNPAITWREWLIAPAYQQAEQGDNSLVLELQTLFSSPYSAPSTELAARYDQLRPQQFFSAGGIAHYSCSSEGHHHHHH,not soluble
9,MGSDKIHHHHHHMNLPSILVIDDLPDNFDVIETLLSEQDYTLHYVASGQEAIASLNLFQPDLILLDVMMPGMDGIEVCQRIKAMPQWQSVPIIMVTALTAKEDLARCLKSGADDFISKPINALELRARLHSMLRIKQQYDKIQTLSNIQTSTIKVLESTLDELRGNLAAALPHELNTPLNGIVGTISILMADIENMDTGEIQELLGWVDLSARNLERLIKQLLLYLELELSTNQQQNIASESTHFSIAVIEAILQSHAPSVNRRDDLMFAIEEAEVSISARYLAIIIYELVDNALKFSRRGTTIKISSQVVAGMLNVYIHDFGRGMTEEQISKIGAFMQFERKTYEQQGIGMGLKLAKQIIESHGGLFSISSVYKKETMVHIALPIAYSRYLS,not soluble
10,MNIVVLISGNGSNLQAIIDACKTNKIKGTVRAVFSNKADAFGLERARQAGIATHTLIASAFDSREAYDRALIHEIDMYAPDVVVLAGFMRILSPAFVSHYAGRLLNIHPSLLPKYPGLHTHRQALENGDEEHGTSVHFVTDELDGGPVILQAKVPVFAGDSEDDITARVQTQEHAIYPLVISWFADGRLKMHENAAWLDGQRLPPQGYAADE,soluble
11,MNLLFQSYLDNVGVQIVRQMRSGERFLKIWSQTVEEIVSYVTVNF,soluble
12,MNPLERKVKQEAEEDGYSSFDEFPAGAIRIPYEELMAKVRAKKAEAEAAQDLVNENSFDQFVAAPPAPPVQKPAVEPSPSCSPETVAVQKFVTEFMQAAGGSRELRIIKDSQETKIVWKTSPAKPKAPPVEDDPTDPTDSQVSTVSSIIPVSSPRGKRRIVVSSDKDSDGDETPTEDNVNNDDQDVTPKKNRKPPVEVVTPSPAKRLRGLNLRSAHSSSDSESDFQDTQCEDSQDSDYFPDTQEQRDRPADFRIPKNAAYDPLDLSYN,not soluble
13,MPAHPAKTDLASSAGARGGALAMESAEHSASPAIATTARLLAAMKDQPGALLPVLHAVQDELGFIPPEAVQTIAETLSLSRAEVHGVITFYPHFRSEPAGRHVLEICRAESCQAMGGDALAAHARQRLGCEFHATAADGSCTLEPVYCLGLCAQSPAVMIDGQPHARVTPAKLDRLLARAIEATP,not soluble
14,GPGSMLYRTAVPVPADALVQRNLEFTRTAWKAGLRPDQRDANQLRVVEIDFPLLSRDVVQVKCGNTVATATISCDLVEPSPYRPKHGFFEVHARQLLNERDPLDQSKEIKRISMYLTRLLSGSVLETESLCVIPGRRVWSIDAEVIIVNNDGNAQDVAQWAVMTALQHVRRPELTIRGEDVIVHPPHERDPVPLPLHHIPLSFTFAVCANPQEVQLAVRAATLRSAHAPRAGASSGANADEGDGEAEELGWSSDALQVVVDPSLEEATAAACTVSVALNGEGHVCSLEKADGCYVSIAYLEQCMEIATKLTQALLSQMKESMEAHNAKRTEAVRSQFLWAQQRHGIQAIATPGDEGEHARKSAKTEK,soluble
15,MNEKYEAVIGLEIHVQMDTKTKMFCGCKVEFGAEPNTNVCPVCLGMPGALPIVNKRAVEYAIRASLALNCEVHEESVFARKHYFYPDLPKGYQISQYEKPLATNGWVELNLPNGEKKKVRIRRLHIEEDAGKNIHEGDKTLVDLNRAGTPLMEIVTEPDIRTPEEARLFLEKLRNIMRYAGVSKADMEKGQLRCDINVSIRPKGSKEFGTRVEIKNVNSFRFVQKALEYEIERQINVVEEGGEVVQETRTFDPQTGKTYPMRTKEEAEDYRYFPDPDLVPLKVKKEWIEEIKKNMPELPDQRFERLIKEYGLSEYEAGILVNHKEVGDFFEEAVRHFKEPKGIVNWLINDLLGLLRDKGISIEESPVKPEHLAELVKLIKEKVISTKIGKEVIKEMVETGKTPSQIVEEKGLKQITDENQIKELVKKIFEKHPKEVERLKQGEEKLIGFFVGQVMRETRGKANPQVVNKVIRELVKEV,soluble
16,MSSQISEIEQEQLIEKLEIFKIHGRDKRGRKILRIIGKFFPARFLSLDVLKKYLEEKIFPRLGRKPFAVLYVHTGVQRSENFPGISALRAIYDAIPVNVRDNLQEVYFLHPGLQSRLFLATCGRFLFSGGLYGKLRYISRVDYLWEHVRRNEIEMPEFVYDHDDDLEYRPMMDYGQESDHARVFAGAAVDSSVSSFSMRCIS,soluble
17,MSLEKLNLICVDDQREVLSAVLQDLEPLNKWLNIEDCESADEVLELMDELDADGEMIALIISDHVMPGKTGVELLTEISKDSRFVRTRKVLLTGQATHTDTINAINSAGIDRYFEKPWQANQLIECVRNLVTQYIFDEGHHHHHH,not soluble
18,MAHHHHHHMNTNGRSAYDMLARMSDEEDDDVPEDLELTFVPASKRREPASSHAVGHHAGNAVPSTLNSPTHSGPAVINPKPRAETVYEQERNAKVRQVLAEQQKTALGVVFSLDAFEAPSPGRYTLAGLQEATGTPAPSCSSAPYNREDQRRGFSQYRGRGGAEGGGRGGPGGGGGPRRYRMPNPNMSGEEQARYIRHRRNMAVIRNALREVDPETLEYMQVTQAPDQLPLNRNCEGFSKPYFSTDRGRGGVDAGGGRSTSSYRGRGGGGGMHGRGGRGFSPYSVGRGTGATRGDGLGRGAGGGCGRSAPFSPYS,not soluble
19,VAESKLVIGDRSFASRLIMGTGGATNLAVLEQALIASGTELTTVAIRRVDADGGTGLLDLLNRLGITPLPNTAGSRSAAEAVLTAQLAREALNTNWVKLEVIADERTLWPDAVELVRAAEQLVDDGFVVLPYTTDDPVLARRLEDTGCAAVMPLGSPIGTGLGIANPHNIEMIVAGARVPVVLDAGIGTASDAALAMELGCDAVLLASAVTRAADPPAMAAAMAAAVTAGYLARCAGRIPKRFWAQASSPAR,soluble
